Experimental data from patent US11807689.

Molecular target: C1q Receptor in the complement system (rabbit serum complement) (rabbit)
Assay: cell-based or functional assay

| Substance | CDC EC50 (Jeko-1 cells, rabbit serum) [µg/mL] |
| --- | --- |
| ARZERRA (ofatumumab) (antibody) | 0.353 |
| OCREVUS (ocrelizumab) (antibody) | 1.21 |
| RITUXAN (rituximab) (antibody) | 0.245 |
